# Assay results taken from ChEMBL document CHEMBL3596158, “Exploring the substrate promiscuity of an antibiotic inactivating enzyme” (Medchemcomm, 2014).
# B1: Microcin C7 self-immunity protein MccF (Escherichia coli), Q47511 (protein)
# chain: MMIQSHPLLAAPLAVGDTIGFFSSSAPATVTAKNRFFRGVEFLQRKGFKLVSGKLTGKTDFYRSGTIKERAQEFNELVYNPDITCIMSTIGGDNSNSLLPFLDYDAIIANPKIIIGYSDTTALLAGIYAKTGLITFYGPALIPSFGEHPPLVDITYESFIKILTRKQSGIYTYTLPEKWSDESINWNENKILRPKKLYKNNCAFYGSGKVEGRVIGGNLNTLTGIWGSEWMPEILNGDILFIEDSRKSIATIERLFSMLKLNRVFDKVSAIILGKHELFDCAGSKRRPYEVLTEVLDGKQIPVLDGFDCSHTHPMLTLPLGVKLAIDFDNKNISITEQYLSTEK
# How the values were obtained:
# [1] = target: T1, Microcin C7 self-immunity protein MccF (Escherichia coli) (UniProt Q47511); experiment: Ratio of compound Kcat/Km to ESA Kcat/Km for wild type Escherichia coli MccF expressed in Escherichia coli Rosetta2 (DE3)
# T1 sequence (whole entry): B1 chain
# [2] = substrate: N[C@@H](CCC(=O)O)C(=O)NS(=O)(=O)OC[C@H]1O[C@@H](n2cnc3c(=O)[nH]cnc32)[C@H](O)[C@@H]1O; experiment: (§1) Substrate activity at wild type Escherichia coli MccF expressed in Escherichia coli Rosetta2 (DE3) by bovine glutamate dehydrogenase-coupled continuous assay
# [3] = substrate: Nc1nc2c(ncn2[C@@H]2O[C@H](COS(=O)(=O)NC(=O)[C@@H](N)CCC(=O)O)[C@@H](O)[C@H]2O)c(=O)[nH]1; experiment: as §1
# [4] = substrate: Nc1ncnc2c1ncn2[C@@H]1O[C@H](COS(=O)(=O)NC(=O)[C@@H](N)CCC(=O)O)[C@@H](O)[C@H]1O; experiment: as §1
Molecule,Ratio [1],Km [2],kcat [2],Km [3],kcat [3],Km [4],kcat [4]
N[C@@H](CCC(=O)O)C(=O)NS(=O)(=O)OC[C@H]1O[C@@H](n2cnc3c(=O)[nH]cnc32)[C@H](O)[C@@H]1O,0.6,,,,,,
Nc1nc2c(ncn2[C@@H]2O[C@H](COS(=O)(=O)NC(=O)[C@@H](N)CCC(=O)O)[C@@H](O)[C@H]2O)c(=O)[nH]1,1.5,,,,,,
B1,,90.9 µM,0.635 s⁻¹,33.4 µM,0.582 s⁻¹,51.6 µM,0.583 s⁻¹
